These results are taken from patent US20260008857A1 (FLAGSHIP PIONEERING INNOVATIONS VI, published 2026).

Bounds are passed on as bounds.

B1: Reference Antibody (antibody, human IgG4 S228P, kappa, V domains shown)
VH: EVQLVESGGGLEQPGGSLRLSCAGSGFTFRDYAMTWVRQAPGKGLEWVSSISGSGGNTYYADSVKGRFTISRDNSKNTLYLQMNSLRAEDTAVYYCAKDRLSITIRPRYYGLDVWGQGTTVTVSS
VL: DIVMTQSPLSLPVTPGEPASISCRSSQSLLYSIGYNYLDWYLQKSGQSPQLLIYLGSNRASGVPDRFSGSGSGTDFTLKISRVEAEDVGFYYCMQALQTPYTFGQGTKLEIKR
B2: AB-13b (antibody, human IgG4 S228P, kappa)
heavy: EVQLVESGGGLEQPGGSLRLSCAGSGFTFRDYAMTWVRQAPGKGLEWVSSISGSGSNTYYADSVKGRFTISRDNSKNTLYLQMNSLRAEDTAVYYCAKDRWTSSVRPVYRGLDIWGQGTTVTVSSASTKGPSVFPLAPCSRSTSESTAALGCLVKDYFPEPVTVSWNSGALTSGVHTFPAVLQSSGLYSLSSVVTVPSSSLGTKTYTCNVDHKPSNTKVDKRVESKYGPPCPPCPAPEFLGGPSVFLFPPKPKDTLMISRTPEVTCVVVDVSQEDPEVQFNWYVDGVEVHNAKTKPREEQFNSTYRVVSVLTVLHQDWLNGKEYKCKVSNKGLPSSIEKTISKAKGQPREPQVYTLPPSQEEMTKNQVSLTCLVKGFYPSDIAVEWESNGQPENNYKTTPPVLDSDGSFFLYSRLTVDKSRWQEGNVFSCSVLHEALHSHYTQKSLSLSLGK
light: DIVMTQSPLSLPVTPGEPASISCRSSQSLLYSHGYNYLDWYLQKSGQSPQLLIYLASNRASGVPDRFSGSGSGTDFTLKISRVEAEDVGFYYCMQSLYTPYTFGQGTKLEIKRTVAAPSVFIFPPSDEQLKSGTASVVCLLNNFYPREAKVQWKVDNALQSGNSQESVTEQDSKDSTYSLSSTLTLSKADYEKHKVYACEVTHQGLSSPVTKSFNRGEC
notes: hIgG4 LS variant, kappa
B3: AB-13a (antibody, human IgG4 S228P, kappa)
heavy: EVQLVESGGGLEQPGGSLRLSCAGSGFTFRDYAMTWVRQAPGKGLEWVSSISGSGSNTYYADSVKGRFTISRDNSKNTLYLQMNSLRAEDTAVYYCAKDRWTSSVRPVYRGLDIWGQGTTVTVSSASTKGPSVFPLAPCSRSTSESTAALGCLVKDYFPEPVTVSWNSGALTSGVHTFPAVLQSSGLYSLSSVVTVPSSSLGTKTYTCNVDHKPSNTKVDKRVESKYGPPCPPCPAPEFLGGPSVFLFPPKPKDTLYITREPEVTCVVVDVSQEDPEVQFNWYVDGVEVHNAKTKPREEQFNSTYRVVSVLTVLHQDWLNGKEYKCKVSNKGLPSSIEKTISKAKGQPREPQVYTLPPSQEEMTKNQVSLTCLVKGFYPSDIAVEWESNGQPENNYKTTPPVLDSDGSFFLYSRLTVDKSRWQEGNVFSCSVMHEALHNHYTQKSLSLSLGK
light: DIVMTQSPLSLPVTPGEPASISCRSSQSLLYSHGYNYLDWYLQKSGQSPQLLIYLASNRASGVPDRFSGSGSGTDFTLKISRVEAEDVGFYYCMQSLYTPYTFGQGTKLEIKRTVAAPSVFIFPPSDEQLKSGTASVVCLLNNFYPREAKVQWKVDNALQSGNSQESVTEQDSKDSTYSLSSTLTLSKADYEKHKVYACEVTHQGLSSPVTKSFNRGEC
notes: hIgG4 YTE variant, kappa
B4: AB-10c (antibody, human IgG4 S228P, kappa, V domains shown)
VH: EVQLVESGGGLEQPGGSLRLSCAGSGFTFRDYAMTWVRQAPGKGLEWVSSISGSGDKTYYADSVKGRFTISRDNSKNTLYLQMNSLRAEDTAVYYCARDRLSSSARPVYVGLDVWGQGTTVTVSS
VL: DIVMTQSPLSLPVTPGEPASISCRSSQSLLYSVGKNYLDWYLQKSGQSPQLLIYLASNRASGVPDRFSGSGSGTDFTLKISRVEAEDVGFYYCMQDLFHPYTFGQGTKLEIKR
notes: hIgG4 WT, kappa
B5: AB-5c (antibody, human IgG4 S228P, kappa)
heavy: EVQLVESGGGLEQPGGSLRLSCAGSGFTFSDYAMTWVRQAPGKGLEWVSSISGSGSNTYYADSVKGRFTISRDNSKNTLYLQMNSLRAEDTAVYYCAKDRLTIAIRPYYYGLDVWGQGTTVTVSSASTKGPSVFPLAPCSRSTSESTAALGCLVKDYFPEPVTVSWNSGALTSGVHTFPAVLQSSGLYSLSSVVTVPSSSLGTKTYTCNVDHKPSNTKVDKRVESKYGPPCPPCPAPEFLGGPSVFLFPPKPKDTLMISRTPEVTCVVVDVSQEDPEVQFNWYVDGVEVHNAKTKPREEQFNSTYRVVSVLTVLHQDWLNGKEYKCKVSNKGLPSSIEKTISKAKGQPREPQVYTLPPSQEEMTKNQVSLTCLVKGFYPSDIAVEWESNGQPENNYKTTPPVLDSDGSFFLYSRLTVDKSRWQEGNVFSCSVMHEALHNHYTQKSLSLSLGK
light: DIVMTQSPLSLPVTPGEPASISCRSSQSLDYSIGYNYLDWYLQKSGQSPQLLIYLASNRASGVPDRFSGSGSGTDFTLKISRVEAEDVGFYYCMQALQTPYTFGQGTKLEIKRTVAAPSVFIFPPSDEQLKSGTASVVCLLNNFYPREAKVQWKVDNALQSGNSQESVTEQDSKDSTYSLSSTLTLSKADYEKHKVYACEVTHQGLSSPVTKSFNRGEC
notes: hIgG4 WT, kappa
B6: AB-11c (antibody, human IgG4 S228P, kappa, V domains shown)
VH: EVQLVESGGGLEQPGGSLRLSCAGSGFTFRDYAMTWVRQAPGKGLEWVSSISGSGTNTYYADSVKGRFTISRDNSKNTLYLQMNSLRAEDTAVYYCAKDRLSVSTRPKYYGLDVWGQGTTVTVSS
VL: DIVMTQSPLSLPVTPGEPASISCRSSQSLDYSYGYNYLDWYLQKSGQSPQLLIYLASNRASGVPDRFSGSGSGTDFTLKISRVEAEDVGFYYCMQSLHTPYTFGQGTKLEIKR
notes: hIgG4 WT, kappa
B7: AB-8c (antibody, human IgG4 S228P, kappa, V domains shown)
VH: EVQLVESGGGLEQPGGSLRLSCAGSGFTFRDYAMTWVRQAPGKGLEWVSSISGSGSNTYYADSVKGRFTISRDNSKNTLYLQMNSLRAEDTAVYYCAKDRLTASVRPNYYGLDVWGQGTTVTVSS
VL: DIVMTQSPLSLPVTPGEPASISCRSSQSLLYSEGYNYLDWYLQKSGQSPQLLIYLASNRASGVPDRFSGSGSGTDFTLKISRVEAEDVGFYYCMQSLTTPYTFGQGTKLEIKR
notes: hIgG4 WT, kappa
B8: AB-6c (antibody, human IgG4 S228P, kappa)
heavy: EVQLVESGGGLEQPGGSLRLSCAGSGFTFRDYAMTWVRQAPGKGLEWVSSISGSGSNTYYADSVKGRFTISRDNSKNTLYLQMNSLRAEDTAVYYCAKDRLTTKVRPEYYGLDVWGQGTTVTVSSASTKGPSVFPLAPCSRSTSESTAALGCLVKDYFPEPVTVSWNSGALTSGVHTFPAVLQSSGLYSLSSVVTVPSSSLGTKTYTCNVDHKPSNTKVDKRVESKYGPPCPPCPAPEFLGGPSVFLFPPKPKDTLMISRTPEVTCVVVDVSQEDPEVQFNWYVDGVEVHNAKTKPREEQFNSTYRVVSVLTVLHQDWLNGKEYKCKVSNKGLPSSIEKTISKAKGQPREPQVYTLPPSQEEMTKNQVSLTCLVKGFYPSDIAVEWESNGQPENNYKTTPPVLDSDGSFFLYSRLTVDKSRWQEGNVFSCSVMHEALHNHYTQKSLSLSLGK
light: DIVMTQSPLSLPVTPGEPASISCRSSQSLLYSIGYNYLDWYLQKSGQSPQLLIYLASNRASGVPDRFSGSGSGTDFTLKISRVEAEDVGFYYCMQSLQTPYTFGQGTKLEIKRTVAAPSVFIFPPSDEQLKSGTASVVCLLNNFYPREAKVQWKVDNALQSGNSQESVTEQDSKDSTYSLSSTLTLSKADYEKHKVYACEVTHQGLSSPVTKSFNRGEC
notes: hIgG4 WT, kappa
B9: AB-2c (antibody, human IgG4 S228P, kappa, V domains shown)
VH: EVQLVESGGGLEQPGGSLRLSCAGSGFTFRDYAMTWVRQAPGKGLEWVSSISGSGSNTYYADSVKGRFTISRDNSKNTLYLQMNSLRAEDTAVYYCARDRLTAAVRPYYYGLDVWGQGTTVTVSS
VL: DIVMTQSPLSLPVTPGEPASISCRSSQSLDYSSGYNYLDWYLQKSGQSPQLLIYLASNRASGVPDRFSGSGSGTDFTLKISRVEAEDVGFYYCMQSLQTPYTFGQGTKLEIKR
notes: hIgG4 WT, kappa
B10: AB-12c (antibody, human IgG4 S228P, kappa)
heavy: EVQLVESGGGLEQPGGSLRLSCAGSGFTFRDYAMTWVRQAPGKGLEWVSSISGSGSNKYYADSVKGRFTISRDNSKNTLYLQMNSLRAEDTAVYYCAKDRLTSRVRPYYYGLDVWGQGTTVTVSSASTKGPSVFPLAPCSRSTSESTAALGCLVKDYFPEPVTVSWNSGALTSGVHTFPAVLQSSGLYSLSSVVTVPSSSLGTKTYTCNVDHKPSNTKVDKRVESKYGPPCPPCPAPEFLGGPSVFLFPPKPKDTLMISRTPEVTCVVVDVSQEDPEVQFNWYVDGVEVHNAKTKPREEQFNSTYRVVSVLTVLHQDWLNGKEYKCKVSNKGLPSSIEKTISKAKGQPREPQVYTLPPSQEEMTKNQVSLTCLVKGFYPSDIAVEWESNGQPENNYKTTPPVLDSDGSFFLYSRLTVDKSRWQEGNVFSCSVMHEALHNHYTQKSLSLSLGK
light: DIVMTQSPLSLPVTPGEPASISCRSSQSLLYSQGYNYLDWYLQKSGQSPQLLIYLASNRASGVPDRFSGSGSGTDFTLKISRVEAEDVGFYYCMQSLFTPYTFGQGTKLEIKRTVAAPSVFIFPPSDEQLKSGTASVVCLLNNFYPREAKVQWKVDNALQSGNSQESVTEQDSKDSTYSLSSTLTLSKADYEKHKVYACEVTHQGLSSPVTKSFNRGEC
notes: hIgG4 WT, kappa
B11: AB-4c (antibody, human IgG4 S228P, kappa)
heavy: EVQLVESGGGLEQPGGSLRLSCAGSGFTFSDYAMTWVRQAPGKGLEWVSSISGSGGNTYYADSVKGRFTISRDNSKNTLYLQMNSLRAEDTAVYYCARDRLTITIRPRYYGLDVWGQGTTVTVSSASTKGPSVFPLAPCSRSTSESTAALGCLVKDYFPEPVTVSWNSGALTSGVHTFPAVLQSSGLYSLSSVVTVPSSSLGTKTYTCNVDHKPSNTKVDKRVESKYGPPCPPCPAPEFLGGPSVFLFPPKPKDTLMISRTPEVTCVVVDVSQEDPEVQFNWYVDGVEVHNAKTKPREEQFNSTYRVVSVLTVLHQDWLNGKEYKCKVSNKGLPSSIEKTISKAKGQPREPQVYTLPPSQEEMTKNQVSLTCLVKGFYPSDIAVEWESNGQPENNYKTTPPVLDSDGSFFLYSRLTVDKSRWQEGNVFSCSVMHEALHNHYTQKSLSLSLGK
light: DIVMTQSPLSLPVTPGEPASISCRSSQSLLYSTGYNYLDWYLQKSGQSPQLLIYLASNRASGVPDRFSGSGSGTDFTLKISRVEAEDVGFYYCMQALSTPYTFGQGTKLEIKRTVAAPSVFIFPPSDEQLKSGTASVVCLLNNFYPREAKVQWKVDNALQSGNSQESVTEQDSKDSTYSLSSTLTLSKADYEKHKVYACEVTHQGLSSPVTKSFNRGEC
notes: hIgG4 WT, kappa
B12: AB-7c (antibody, human IgG4 S228P, kappa, V domains shown)
VH: EVQLVESGGGLEQPGGSLRLSCAGSGFTFRDYAMTWVRQAPGKGLEWVSSISGSGSTTYYADSVKGRFTISRDNSKNTLYLQMNSLRAEDTAVYYCAKDRLTASVRPIYVGLDVWGQGTTVTVSS
VL: DIVMTQSPLSLPVTPGEPASISCRSSQSLLYSEGYNYLDWYLQKSGQSPQLLIYLASNRASGVPDRFSGSGSGTDFTLKISRVEAEDVGFYYCMQTLKTPYTFGQGTKLEIKR
notes: hIgG4 WT, kappa
B13: AB-13d (antibody, human IgG1, kappa)
heavy: not shown
light: DIVMTQSPLSLPVTPGEPASISCRSSQSLLYSHGYNYLDWYLQKSGQSPQLLIYLASNRASGVPDRFSGSGSGTDFTLKISRVEAEDVGFYYCMQSLYTPYTFGQGTKLEIKRTVAAPSVFIFPPSDEQLKSGTASVVCLLNNFYPREAKVQWKVDNALQSGNSQESVTEQDSKDSTYSLSSTLTLSKADYEKHKVYACEVTHQGLSSPVTKSFNRGEC
notes: hIgG1, kappa

One test has as its target T1, IL-4Rα on human primary cells (primary B cells, whole blood B and T cells, PBMCs) (human, UniProt P24394 26-825).
T1 sequence (looked up): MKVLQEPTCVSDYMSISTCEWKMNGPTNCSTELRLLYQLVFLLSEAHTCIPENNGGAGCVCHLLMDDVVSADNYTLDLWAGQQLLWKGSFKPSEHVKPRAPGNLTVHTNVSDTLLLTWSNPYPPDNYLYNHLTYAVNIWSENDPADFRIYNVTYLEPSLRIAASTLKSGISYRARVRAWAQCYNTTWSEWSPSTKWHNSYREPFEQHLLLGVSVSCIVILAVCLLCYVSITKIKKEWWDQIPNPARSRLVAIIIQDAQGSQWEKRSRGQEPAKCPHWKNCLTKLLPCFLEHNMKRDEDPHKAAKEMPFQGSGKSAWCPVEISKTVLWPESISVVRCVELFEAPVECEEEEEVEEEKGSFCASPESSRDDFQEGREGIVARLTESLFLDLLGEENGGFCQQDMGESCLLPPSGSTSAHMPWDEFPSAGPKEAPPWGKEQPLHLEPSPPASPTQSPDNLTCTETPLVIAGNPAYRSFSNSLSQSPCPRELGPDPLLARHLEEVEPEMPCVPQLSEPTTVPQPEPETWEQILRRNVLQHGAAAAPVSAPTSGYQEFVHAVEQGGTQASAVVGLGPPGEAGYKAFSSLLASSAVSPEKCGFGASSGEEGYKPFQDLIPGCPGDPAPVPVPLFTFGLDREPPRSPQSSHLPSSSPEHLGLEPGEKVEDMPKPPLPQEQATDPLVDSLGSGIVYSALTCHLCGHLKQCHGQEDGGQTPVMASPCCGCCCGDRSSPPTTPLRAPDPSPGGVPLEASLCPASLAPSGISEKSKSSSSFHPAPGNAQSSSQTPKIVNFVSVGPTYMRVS
As to the kind of experiment: cell-based or functional assay.
For the molecule B1, the “Inhibition of CD23 Expression by Primary B cells (IC50), Donor 13” value (“Inhibition of CD23 Expression … Donor 13” below) amounted to 22 nM; the “Inhibition of CD23 Expression by Primary B cells (IC50), Donor 52” value (from here on “Inhibition of CD23 Expression … Donor 52”) was found to be 11.9 nM; the “Inhibition of CD23 Expression by Primary B cells (IC50), Donor 53” value (shortened to “Inhibition of CD23 Expression … Donor 53”) was 18 nM; the “Inhibition of CD23 Expression by Primary B cells (IC50), Donor 56” value (“Inhibition of CD23 Expression … Donor 56” below) amounted to 29.8 nM.
On to B2, for which the “Inhibition of CD23 Expression … Donor 13” value came out at 30.1 nM; the “Inhibition of CD23 Expression … Donor 52” value turned out to be 34.4 nM; the “Inhibition of CD23 Expression … Donor 53” value is 35.9 nM; the “Inhibition of CD23 Expression … Donor 56” value came out at 54.2 nM.
Consider B3, for which the “Inhibition of CD23 Expression … Donor 13” value was found to be 27.5 nM; the “Inhibition of CD23 Expression … Donor 52” value was 17.8 nM; the “Inhibition of CD23 Expression … Donor 53” value was found to be 40.6 nM; the “Inhibition of CD23 Expression … Donor 56” value came out at 54.4 nM.

The target in a further test is T2, human IL-4Rα (interleukin 4 receptor subunit alpha) (human, UniProt P24394 26-232, limits assumed).
T2 sequence (looked up): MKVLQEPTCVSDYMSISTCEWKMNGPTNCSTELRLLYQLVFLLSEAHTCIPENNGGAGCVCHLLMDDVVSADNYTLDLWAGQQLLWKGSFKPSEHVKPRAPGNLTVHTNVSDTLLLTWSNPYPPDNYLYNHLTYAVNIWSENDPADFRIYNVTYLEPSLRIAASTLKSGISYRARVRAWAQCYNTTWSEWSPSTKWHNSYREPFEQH
The test can be described thus: SPR, Carterra LSA non-regenerative capture kinetics; antibody captured on goat anti-human polyclonal lawn, human IL-4Rα as analyte, 25 C, 1:1 model; average ± SD of technical replicates. (SPR reads the build-up and loss of mass on a sensor chip optically.)
As for B4, binding was characterised by a dissociation constant (Kd) of 546 nM.
With B5, binding was characterised by a dissociation constant (Kd) of 2.37 nM.
On the same count and under the same terms, for B6 the value was 0.83 nM.
On the same count and under the same terms, for B7 the value was 0.85 nM.
As for B8, the Kd (usually a measure of binding affinity in units of concentration) was ≤ 0.1 nM.
Same read-out and setting: for B9 the value was 50.7 nM.
On to B10, for which the Kd is ≤ 0.09 nM.
In turn, B11 returned a Kd of 0.56 nM.
In turn, B12 displayed a Kd of 0.3 nM.

For the next test, the target named is T2, human IL-4Rα (interleukin 4 receptor …). The test can be described thus: SPR, Biacore 8K+ multi-cycle capture kinetics; antibody captured on goat anti-human polyclonal surface, human IL-4Rα as analyte, 25 C, 1:1 model.
With B2, binding was characterised by a dissociation constant (Kd) of 0.0249 nM; the koff (commonly a measure of how fast the partners let go of each other) was 2.19e-05 s⁻¹; the kon (in general, a measure of how fast the partners come together) turned out to be 881000 M⁻¹ s⁻¹.
Taken in the same sequence, the figures for B3 were 0.0333 nM, 2.59e-05 s⁻¹ and 778000 M⁻¹ s⁻¹.
Taken in the same sequence, the figures for B13 were 0.0326 nM, 2.57e-05 s⁻¹ and 789000 M⁻¹ s⁻¹.
